The subject of the experiment is bone marrow-derived dendritic cells (BMDCs). Briefly: Antigen uptake by BMDCs (confocal microscopy; OVA-Rhod). Format: cell-based. Particulars: 1 h, 37 °C, OVA-Rhod 2.5 µg mL^-1 (soluble) or Comp./OVA = 10:1 w/w. Here is the method: Figure 5 Vaccine promoting antigen uptake by BMDCs. […] Magnification: 63 ×. (B) The percentage of OVA-Rhod-positive cells is shown. (C) Total fluorescence intensity of OVA-Rhod was measured; total fluorescence intensity (FI) = % of positive cells × mean fluorescence intensity. The bars shown represent the mean ± SE, and differences among groups were determined using one-way ANOVA. The asterisks indicate the significance of differences between the Vac-1 group and the indicated group. *: p < 0.05, **: p < 0.01.

Experimental findings from paper PMC6929975, “A supramolecular protein chaperone for vaccine delivery” (Theranostics, 2020) are described below.

B1: RBITC-OVA: OVA labelled with Rhodamine b isothiocyanate, soluble (protein, UniProt P01012 2-386, looked up)
Ovalbumin: GSIGAASMEFCFDVFKELKVHHANENIFYCPIAIMSALAMVYLGAKDSTRTQINKVVRFDKLPGFGDSIEAQCGTSVNVHSSLRDILNQITKPNDVYSFSLASRLYAEERYPILPEYLQCVKELYRGGLEPINFQTAADQARELINSWVESQTNGIIRNVLQPSSVDSQTAMVLVNAIVFKGLWEKAFKDEDTQAMPFRVTEQESKPVQMMYQIGLFRVASMASEKMKILELPFASGTMSMLVLLPDEVSGLEQLESIINFEKLTEWTSSNVMEERKIKVYLPRMKMEEKYNLTSVLMAMGITDVFSSSANLSGISSAESLKISQAVHAAHAEINEAGREVVGSAEAGVDAASVSEEFRADHPFLFCIKHIATNAVLFFGRCVSP
modifications: rhodamine B isothiocyanate label
notes: OVA labelled with Rhodamine b isothiocyanate, soluble
On to B1, for which the “uptake of RBITC-OVA by DCs” value is “poor uptake”.
